# Measurements from patent US20230227514A1, “BETA-ARRESTIN COMPOSITIONS AND ASSOCIATED METHODS” (Duke University, priority 2020, published 2023).
# B1: βarrestin2-K296R: rat βarrestin2 with lysine-296 of the canonical SUMOylation site mutated to arginine (protein)
# chain: MGEKPGTRVFKKSSPNCKLTVYLGKRDFVDHLDKVDPVDGVVLVDPDYLKDRKVFVTLTCAFRYGREDLDVLGLSFRKDLFIATYQAFPPMPNPPRPPTRLQDRLLKKLGQHAHPFFFTIPQNLPCSVTLQPGPEDTGKACGVDFEIRAFCAKSIEEKSHKRNSVRLIIRKVQFAPETPGPQPSAETTRHFLMSDRRSLHLEASLDKELYYHGEPLNVNVHVTNNSAKTVKKIRVSVRQYADICLFSTAQYKCPVAQLEQDDQVSPSSTFCKVYTITPLLSDNREKRGLALDGQLRHEDTNLASSTIVKEGANKEVLGILVSYRVKVKLVVSRGGDVSVELPFVLMHPKPHDHITLPRPQSAPREIDIPVDTNLIEFDTNYATDDDIVFEDFARLRLKGMKDDDCDDQFC
# modifications: left off: large carriers
# What was measured:
# Format in all cases: cell-based
# β2AR [1] = target: T1, β2AR (Homo sapiens, UniProt P07550); test: BRET assay of βarrestin1 construct recruitment to β2AR; details: with or without isoproterenol stimulation
# T1 construct: Flag (N); expressed in transfected cells
# Source text: The bar graph summarizes the BRET ratio corresponding to the recruitment of βarrestin1 or βarrestin1-SUMO1 fusion protein to the β2AR with or without isoproterenol (β2AR agonist) stimulation, as described in Example 1 herein.
# (§1) BRET assays. […] Titration assays were first completed, which allowed determination of the specificity of association among different interaction partners. See Nagi and Shenoy. 2019, supra; Gales et al. 2005. Nature methods 2:177-184; Nagi et al. 2015. Cellular and molecular life sciences: CMLS 72:3543-3557; Audet and Pineyro. 2011. Methods in molecular biology 756:149-163; and Rebois et al. 2006. Journal of cell science 119:2807-2818. […] BRET readings were acquired using Synergy Neo2 plate reader and obtained 5 min after manual addition of Rluc substrate, coelenterazine h (Promega) to a final concentration of 5 μM.
# (§2) The BRET signal generated was determined by calculating the ratio of light emitted by YFP (520-550 nm) over the light emitted by Rluc (440-480 nm). These values were then corrected by subtracting the background signal (detected when the Rluc-tagged construct was expressed without acceptor) from the BRET signal detected in cells co-expressing both donor and acceptor constructs. Agonist-induced BRET values were calculated by subtracting net BRET values of non-stimulated conditions from net BRET values corresponding to the stimulated conditions.
# glucagon receptor (GCGR) = target: T2, glucagon receptor (GCGR) (Homo sapiens, UniProt P47871); test: BRET assay of βarrestin1 construct recruitment to GCGR; details: GCGR activation with glucagon
# T2 construct: expressed in transfected cells; host or cells: HEK-293T
# T2 sequence (P47871 26-477, species assumed): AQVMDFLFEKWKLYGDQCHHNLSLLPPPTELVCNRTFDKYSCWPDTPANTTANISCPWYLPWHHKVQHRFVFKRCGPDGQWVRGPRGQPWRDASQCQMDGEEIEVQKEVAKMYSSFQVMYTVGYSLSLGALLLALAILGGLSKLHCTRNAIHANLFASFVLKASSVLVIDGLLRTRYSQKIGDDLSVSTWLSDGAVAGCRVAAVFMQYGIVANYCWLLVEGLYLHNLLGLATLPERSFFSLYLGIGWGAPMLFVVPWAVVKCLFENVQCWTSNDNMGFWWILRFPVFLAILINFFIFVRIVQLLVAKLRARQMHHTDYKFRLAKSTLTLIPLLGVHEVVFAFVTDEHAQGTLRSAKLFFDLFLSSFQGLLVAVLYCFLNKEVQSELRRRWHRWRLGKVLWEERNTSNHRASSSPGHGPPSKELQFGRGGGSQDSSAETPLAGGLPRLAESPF
# Source text: The bar graph summarizes the BRET ratio corresponding to the recruitment of βarrestin1 or βarrestin1-SUMO1 fusion protein to the GCGR with or without glucagon (GCGR agonist) stimulation, as described in Example 1 herein.
# as §1, §2
# RanGAP1 [2] = test: Western blotting of RanGAP1 levels on βarrestin2 overexpression; details: RanGAP1/GAPDH ratio, Western blot
# Source text: HEK-293T cells stably transfected with β2AR were transfected with vector or YFP-βarrestin2. […] The unmodified RanGAP1 band (70 kDa) was divided by cognate GAPDH and plotted as a ratio. The bar graph (bottom panel) summarizes values from three independent experiments. *p=0.006, unpaired t test.
# In these experiments, SUMO1 by itself is not localized at the nuclear membrane in HEK-293 cells; only βarrestin2-SUMO1 is localized at the nuclear membrane. […] It is well established that RanGAP1 is expressed in cells predominantly in the SUMOylated state. This is illustrated in immunoblots (FIGS. 9-11), in which the RanGAP1 antibody detects two bands, SUMO-RanGAP1 (approximately 90 kDa) and RanGAP1 (approximately 70 kDa).
# RanGAP1 [3] = target: T3, RanGAP1 (Homo sapiens, UniProt P46060); test: Confocal colocalization with endogenous RanGAP1 at the nuclear envelope; details: HEK-293 cells with or without β2AR agonist stimulation
# T3 construct: endogenous in cells; host or cells: HEK-293T / HEK-293
# T3 sequence (P46060 2-587 limits assumed): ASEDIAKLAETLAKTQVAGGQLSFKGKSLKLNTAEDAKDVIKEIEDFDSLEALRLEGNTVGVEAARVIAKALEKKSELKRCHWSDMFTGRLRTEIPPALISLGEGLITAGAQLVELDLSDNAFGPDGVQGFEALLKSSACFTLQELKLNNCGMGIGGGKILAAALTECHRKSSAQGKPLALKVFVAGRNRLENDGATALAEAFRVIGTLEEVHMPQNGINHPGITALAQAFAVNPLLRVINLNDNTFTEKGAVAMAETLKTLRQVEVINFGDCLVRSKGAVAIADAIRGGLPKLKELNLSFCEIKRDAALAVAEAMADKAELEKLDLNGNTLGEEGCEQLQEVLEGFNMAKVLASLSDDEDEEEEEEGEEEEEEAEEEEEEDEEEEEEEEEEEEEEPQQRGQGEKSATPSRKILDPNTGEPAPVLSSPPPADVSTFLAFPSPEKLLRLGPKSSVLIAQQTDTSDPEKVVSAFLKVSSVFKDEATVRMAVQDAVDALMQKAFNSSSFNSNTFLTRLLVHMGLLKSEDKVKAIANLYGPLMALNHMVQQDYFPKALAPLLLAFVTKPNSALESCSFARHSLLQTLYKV
# T3 sequence (P63165 2-97 partner limits assumed): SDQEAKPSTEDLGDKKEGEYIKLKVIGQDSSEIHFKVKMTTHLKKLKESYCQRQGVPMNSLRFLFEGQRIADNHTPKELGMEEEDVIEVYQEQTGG
# Experimental: (§3) Immunostaining and confocal microscopy. […] Twenty-four hours post-transfection, cells were serum-starved for 4 h, and either left untreated or treated with respective agonists for the indicated times in the Figure descriptions. After stimulation, cells were fixed with 5% formaldehyde diluted in phosphate-buffered saline (PBS), permeabilized with 0.1% Triton in PBS containing 2% bovine serum albumin for 20 min and incubated at room temperature with appropriate primary antibody. The next day, cells were washed three times with PBS and incubated with Alexa594 conjugated secondary antibody for 1 h, followed by repeated washes using PBS. Confocal images were acquired using Zeiss LSM510 laser-scanning microscope using multitrack sequential with excitation (488 and 568 nm) and emission (BP 505-550 nm and LP 585 nm) filter sets. Images (1024×1024 pixels) were collected using either a 63× or 100× oil immersion lens. Images were processed for Figure presentation using Adobe Photoshop software, and any increase or decrease of brightness/contrast was applied to the entire image. The nuclear rim localization of YFP-βarrestin2-SUMO1 is readily visualized in cells with low to moderate expression of YFP-protein. In cells with high expression, this localization is present, and can be discerned by enlarging sections of the nuclear rim. […]
# [4] = target: T4, D1 dopamine receptor (D1R) (Homo sapiens, UniProt P21728); test: Confocal trafficking and colocalization with D1R; details: HEK-293 cells with stable D1R expression; dopamine 15 minutes
# T4 construct: expressed in transfected cells
# T4 sequence (P21728 whole entry): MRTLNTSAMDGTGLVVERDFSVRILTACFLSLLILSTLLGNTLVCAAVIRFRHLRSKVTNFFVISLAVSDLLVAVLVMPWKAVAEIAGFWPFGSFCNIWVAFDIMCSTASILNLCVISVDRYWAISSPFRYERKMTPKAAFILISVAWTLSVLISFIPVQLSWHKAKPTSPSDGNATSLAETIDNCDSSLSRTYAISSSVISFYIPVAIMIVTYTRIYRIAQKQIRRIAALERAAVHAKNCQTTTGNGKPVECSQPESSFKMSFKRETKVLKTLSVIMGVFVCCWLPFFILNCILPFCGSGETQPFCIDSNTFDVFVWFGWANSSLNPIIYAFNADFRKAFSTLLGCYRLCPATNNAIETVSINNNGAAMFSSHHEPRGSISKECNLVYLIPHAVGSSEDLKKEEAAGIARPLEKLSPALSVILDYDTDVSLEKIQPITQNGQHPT
# Experimental: as §3
# D2R = target: T5, D2R (Homo sapiens, UniProt P14416); test: Confocal trafficking and colocalization with D2R; details: HEK-293 cells stably expressing D2R
# T5 construct: HA (N); expressed in transfected cells
# T5 sequence (P14416 whole entry): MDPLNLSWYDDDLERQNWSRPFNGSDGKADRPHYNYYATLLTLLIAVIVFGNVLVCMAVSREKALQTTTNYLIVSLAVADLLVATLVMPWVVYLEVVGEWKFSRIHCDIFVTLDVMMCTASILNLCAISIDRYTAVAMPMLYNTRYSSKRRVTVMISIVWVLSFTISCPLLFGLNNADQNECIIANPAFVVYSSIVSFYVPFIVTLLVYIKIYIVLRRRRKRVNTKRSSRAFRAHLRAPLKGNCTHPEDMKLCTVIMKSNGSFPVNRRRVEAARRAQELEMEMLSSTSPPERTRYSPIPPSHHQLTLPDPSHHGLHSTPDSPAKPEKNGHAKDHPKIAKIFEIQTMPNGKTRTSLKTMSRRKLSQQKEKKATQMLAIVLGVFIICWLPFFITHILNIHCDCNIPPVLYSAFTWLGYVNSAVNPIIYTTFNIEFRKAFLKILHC
# Experimental: as §3
# β2AR [5] = target: T1, β2AR; test: Confocal trafficking and colocalization with β2AR
# Experimental: Immunostaining and confocal microscopy. […] Twenty-four hours post-transfection, cells were serum-starved for 4 h, and either left untreated or treated with respective agonists for the indicated times in the Figure descriptions. After stimulation, cells were fixed with 5% formaldehyde diluted in phosphate-buffered saline (PBS), permeabilized with 0.1% Triton in PBS containing 2% bovine serum albumin for 20 min and incubated at room temperature with appropriate primary antibody. The next day, cells were washed three times with PBS and incubated with Alexa594 conjugated secondary antibody for 1 h, followed by repeated washes using PBS. Confocal images were acquired using Zeiss LSM510 laser-scanning microscope using multitrack sequential with excitation (488 and 568 nm) and emission (BP 505-550 nm and LP 585 nm) filter sets. Images (1024×1024 pixels) were collected using either a 63× or 100× oil immersion lens. Images were processed for Figure presentation using Adobe Photoshop software, and any increase or decrease of brightness/contrast was applied to the entire image. The nuclear rim localization of YFP-βarrestin2-SUMO1 is readily visualized in cells with low to moderate expression of YFP-protein. In cells with high expression, this localization is present, and can be discerned by enlarging sections of the nuclear rim.
# For βarrestin2-SUMO1, plasma membrane translocation was detected upon β2AR agonist activation, and, intriguingly, βarrestin2-SUMO1 was detected in endocytic vesicles. […] Confocal images were taken of cells stably expressing the β2AR and transiently expressing YFP-SUMO1 (data not shown). In both quiescent and agonist-treated cells, the SUMO1 protein remained in the nucleus. […] See Shenoy et al. 2007, supra; Shenoy and Lefkowitz. 2005. J Biol Chem 280:15315-15324; and Shenoy and Lefkowitz. 2003. J Biol Chem 278:14498-14506. Therefore, the endosomal trafficking was compared for βarrestin2-ubiquitin (βarrestin2-Ub) fusion protein and internalized β2ARs. […]
# SUMO1 = target: T6, SUMO1 (Homo sapiens, UniProt P63165); test: SUMOylation of FLAG-βarrestin2 constructs co-expressed with His6-SUMO1 (FLAG IP, immunoblot); details: overexpressed in HEK-293 cells along with His-SUMO1
# T6 construct: His6 (N); expressed in transfected cells; host or cells: HEK-293 (transient)
# T6 sequence (P63165 1-97 limits assumed): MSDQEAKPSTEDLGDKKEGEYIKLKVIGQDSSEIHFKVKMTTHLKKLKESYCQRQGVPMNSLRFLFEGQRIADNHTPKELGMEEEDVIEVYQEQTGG
# Source text: HEK-293 cells were transfected with vector, FLAG-βarrestin2 (WT) or FLAG-βarrestin2-K296R along with His6-SUMO1.
# SUMOylation is targeted to a canonical protein sequence (Ψ-K-X-D/E), where Ψ is an aliphatic amino acid, K is the target site for the covalent modification by SUMO, X is any amino acid and is followed by an acidic residue. See Sampson et al. 2001. J Biol Chem 276:21664-21669. […] See Wyatt et al. 2011 and Xiao et al. 2015, both supra.
molecule,measurement,setting,value
"βarrestin1: wild-type rat βarrestin1 (SEQ ID NO:4), used as comparator [reference compound]",association with β2AR by BRET ratio,β2AR [1],weak association
same,association with GCGR by BRET,glucagon receptor (GCGR),weak association
"βarrestin2: wild-type rat βarrestin2 (SEQ ID NO:3), tagged, used as comparator [reference compound]",increase of unmodified RanGAP1 band (approximately 70 kDa) versus vector transfected cells,RanGAP1 [2],50%
same,colocalization with endogenous RanGAP1 at the nuclear envelope,RanGAP1 [3],Minimal colocalization
same,association with D1R after dopamine activation (confocal),[4],weak association
same,stability of association with activated D2R (confocal),D2R,not stable
same,colocalization / complexes with β2AR after agonist activation (confocal),"β2AR [5]; HEK-293 cells with stable β2AR expression, agonist up to 20 minutes",no colocalization was detected
βarrestin1-SUMO1: rat βarrestin1 polypeptide fused to human SUMO1 (SEQ ID NO:2),association with β2AR by BRET ratio,β2AR [1],significantly more binding
same,colocalization of βarrestin1 constructs with β2AR (confocal),"β2AR [5]; HEK-293 cells, isoproterenol",strong colocalization
same,association with GCGR by BRET,glucagon receptor (GCGR),significantly more binding
B1,SUMOylation compared with rat βarrestin2 (WT),SUMO1,significantly decreased but not eliminated
